# B1: monomeric C-reactive protein (CRP) (other, UniProt P02741 19-224, looked up)
# chain: QTDMSRKAFVFPKESDTSYVSLKAPLTKPLKAFTVCLHFYTELSSTRGYSIFSYATKRQDNEILIFWSKDIGYSFTVGGSEILFEVPEVTVAPVHICTSWESASGIVEFWVDGKPRVRKSLKKGYTVGAEASIILGQEQDSFGGNFEGSQSLVGDIGNVNMWDFVLSPDEINTIYLGGPFSPNVLNWRALKYEVQGEVFTKPQLWP
# Legend:
# Assay in all cases: plate-based binding assay, His-tagged recombinant protein from HEK293 cells
# [1] = target: T1, eCFHT-SK (engineered truncated CFH, I62-Y402, ending in SKSFTL) (human, UniProt P08603 19-445)
# T1 construct: Non-natural variant of human CFHT with SK inserted before the C-terminal SFTL; In the Western blot it was expressed from eCFH/T v4.2 in RPE1 cells; also called protective eCFHT-SK; truncated product of eCFH/T v4.2
# [2] = target: T2, protective CFH-I62-Y402-E936 (full-length complement factor H) (human, UniProt P08603 19-1231)
# T2 construct: In the Western blot it was expressed in RPE1 cells from plasmid pCTM133; also called CFH-Protection
# [3] = target: T3, protective CFHT-I62-Y402 (truncated complement factor H ending in SFTL) (human, UniProt P08603 19-445)
# T3 construct: In the Western blot it was expressed in RPE1 cells from pCTM134 and from eCFH/T v4.1; also called CFHT-Protection; native protective CFHT
# [4] = target: T4, eCFHT-SE (engineered truncated CFH, I62-Y402, ending in SESFTL) (human, UniProt P08603 19-445)
# T4 construct: The chain is built from the first 445 residues shared by CFH and CFHT, less the 18-residue signal peptide, plus the printed C-terminal SESFTL; His-tagged and purified from HEK293 cells; also called protective eCFHT-SE; truncated product of eCFH/T v4.3
# T4 sequence (P08603 other isoform, or with tags, fused parts or gaps): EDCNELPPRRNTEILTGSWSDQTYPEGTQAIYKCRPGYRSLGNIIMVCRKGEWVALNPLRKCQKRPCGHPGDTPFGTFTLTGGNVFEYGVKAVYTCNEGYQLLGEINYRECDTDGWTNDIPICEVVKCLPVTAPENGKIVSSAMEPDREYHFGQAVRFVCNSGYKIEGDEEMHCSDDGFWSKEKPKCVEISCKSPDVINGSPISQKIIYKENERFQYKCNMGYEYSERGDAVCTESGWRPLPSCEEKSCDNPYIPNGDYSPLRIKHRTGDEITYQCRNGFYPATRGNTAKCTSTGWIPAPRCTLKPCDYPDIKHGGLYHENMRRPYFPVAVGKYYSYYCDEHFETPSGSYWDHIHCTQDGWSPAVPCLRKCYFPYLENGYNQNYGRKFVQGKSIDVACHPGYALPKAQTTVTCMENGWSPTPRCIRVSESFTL
# T3 sequence (P08603 other isoform, or with tags, fused parts or gaps): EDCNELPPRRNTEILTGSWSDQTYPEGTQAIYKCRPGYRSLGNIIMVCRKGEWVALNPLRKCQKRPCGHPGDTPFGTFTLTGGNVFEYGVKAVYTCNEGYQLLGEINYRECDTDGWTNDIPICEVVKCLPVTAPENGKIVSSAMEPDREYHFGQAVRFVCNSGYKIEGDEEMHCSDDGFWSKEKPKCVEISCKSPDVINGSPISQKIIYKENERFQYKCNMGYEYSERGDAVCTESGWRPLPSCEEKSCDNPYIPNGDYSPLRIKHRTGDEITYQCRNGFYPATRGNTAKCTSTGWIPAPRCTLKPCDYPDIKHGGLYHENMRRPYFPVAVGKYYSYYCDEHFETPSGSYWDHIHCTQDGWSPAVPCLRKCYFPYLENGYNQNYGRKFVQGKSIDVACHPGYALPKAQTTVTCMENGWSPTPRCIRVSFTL
# T1 sequence (P08603 other isoform, or with tags, fused parts or gaps): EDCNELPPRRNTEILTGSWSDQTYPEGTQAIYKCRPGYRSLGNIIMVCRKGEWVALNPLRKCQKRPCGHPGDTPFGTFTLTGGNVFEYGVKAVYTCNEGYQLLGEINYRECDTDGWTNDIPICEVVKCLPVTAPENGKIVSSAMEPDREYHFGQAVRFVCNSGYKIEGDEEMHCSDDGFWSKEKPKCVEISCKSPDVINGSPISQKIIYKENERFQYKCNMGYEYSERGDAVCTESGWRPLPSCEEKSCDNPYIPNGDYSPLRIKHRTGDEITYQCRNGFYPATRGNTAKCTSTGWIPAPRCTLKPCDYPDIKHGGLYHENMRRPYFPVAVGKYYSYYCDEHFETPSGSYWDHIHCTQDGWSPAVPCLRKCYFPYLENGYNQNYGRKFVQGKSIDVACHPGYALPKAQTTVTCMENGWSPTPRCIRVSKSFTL
# T2 sequence (P08603 19-1231 V62I): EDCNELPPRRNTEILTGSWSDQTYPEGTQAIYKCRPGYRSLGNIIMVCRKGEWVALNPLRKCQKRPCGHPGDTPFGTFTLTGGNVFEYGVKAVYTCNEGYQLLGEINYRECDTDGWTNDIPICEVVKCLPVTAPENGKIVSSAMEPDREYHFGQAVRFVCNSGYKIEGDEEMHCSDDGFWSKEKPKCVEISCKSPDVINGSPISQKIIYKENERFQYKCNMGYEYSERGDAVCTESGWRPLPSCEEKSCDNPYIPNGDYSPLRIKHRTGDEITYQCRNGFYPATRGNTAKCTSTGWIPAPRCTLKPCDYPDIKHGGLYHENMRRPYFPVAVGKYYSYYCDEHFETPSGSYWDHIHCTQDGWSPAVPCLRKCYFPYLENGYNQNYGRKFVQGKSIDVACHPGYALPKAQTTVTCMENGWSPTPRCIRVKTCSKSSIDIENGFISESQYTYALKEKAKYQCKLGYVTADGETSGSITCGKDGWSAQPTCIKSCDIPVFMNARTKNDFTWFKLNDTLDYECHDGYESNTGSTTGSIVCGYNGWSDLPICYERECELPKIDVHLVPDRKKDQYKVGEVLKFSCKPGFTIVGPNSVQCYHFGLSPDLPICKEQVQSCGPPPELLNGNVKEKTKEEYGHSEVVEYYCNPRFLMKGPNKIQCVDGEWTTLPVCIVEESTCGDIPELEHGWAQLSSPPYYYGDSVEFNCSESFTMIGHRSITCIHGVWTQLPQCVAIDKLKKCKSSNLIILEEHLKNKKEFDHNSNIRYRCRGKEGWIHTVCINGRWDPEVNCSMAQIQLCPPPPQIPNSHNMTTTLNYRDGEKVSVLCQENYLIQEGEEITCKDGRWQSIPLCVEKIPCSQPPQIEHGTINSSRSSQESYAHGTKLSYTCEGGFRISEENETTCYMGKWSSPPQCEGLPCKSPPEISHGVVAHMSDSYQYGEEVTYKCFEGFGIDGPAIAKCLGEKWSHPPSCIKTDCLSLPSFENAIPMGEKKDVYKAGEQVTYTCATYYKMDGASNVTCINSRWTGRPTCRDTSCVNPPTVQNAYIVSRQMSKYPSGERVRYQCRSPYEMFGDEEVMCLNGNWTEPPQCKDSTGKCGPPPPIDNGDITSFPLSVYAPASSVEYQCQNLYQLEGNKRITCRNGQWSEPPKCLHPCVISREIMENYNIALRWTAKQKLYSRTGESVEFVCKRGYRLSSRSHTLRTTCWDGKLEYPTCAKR
binder,measurement,setting,value
B1,Kd,[1],13.7 nM
same,Kd,[2],127 nM
same,Kd,[3],14.3 nM
same,Kd,[4],25.3 nM
